From patent US11021533 come the findings set out here.

The target in assay [1] is all ZIKV strains tested (MR 766, Dakar 41519, Malaysia P6740, H/PF/2013, Brazil Paraiba 2015). Briefly: cell-based or functional assay.
Assay [2] concerns the target ZIKV strain H/PF/2013 (French Polynesia, 2013) virus (Zika virus, strain H/PF/2013). In words: cell-based or functional assay.

B1: ZIKV-117 (antibody, V domains shown)
VH: QVQLVESGGGVVRPGGSLRLSCAASGFTFKNYGIHWVRQAPGKGPEWVAFVRYDGNNKYYADSVKGRFTISRDNAKNTLSLQMNSLRVEDTAVYFCARDPETFGGFDYWGQGTLVTVSS
VL: ETVMTQSPATLSVSPGERGTLSCRASESVSSNLAWYQQKPGKAPRLLIYGASTRATGIPDRFSGSGSGTEFTLTISSLQSEDFAVYYCQQYYYSPRTFGQGTKVEVK
In assay [1], B1 displayed an FRNT50 (focus reduction neutralization test on Vero cells) of 5 to 25 ng/mL.

B2: ZIKV-88 (antibody, V domains shown)
VH: QVQLLESGGGVVQPGRSLRLSCVASGLTFSTSAMHWVRQAPGKGLEWVAVISYDGSYKFYADSVRDQFTISRDNSKTTLYLQMDGLTPEDTAVYYCARGYNDDSSGSYWYFDLWGRGTLVTVSS
VL: QSVLTQPPSVSAAPGQKVTMSCSGSSSNIGSNFVSWYQQLPGTAPKVLIFDNNQRPSGIPDRFSGSKSGTSATLAITGLQPGDEAVYHCGTWDSSLTFAVFGGGTKLTVL
B2 came in with an FRNT50 (focus reduction neutralization test on Vero cells) in assay [2] of 420 ng/mL.
